Experimental data: PMC11811267 (Journal of Separation Science, 2025)

How the values were obtained:
[1] = Short-term (bench-top) stability at room temperature in artificial plasma with and without 1% PIC; details: triplicate, 2D-LC-MS/MS
Procedure: (§1) A mixed standard solution containing all insulins at a concentration of 10,000 ng/mL was obtained by diluting the stock solutions with artificial plasma. This stock solution was further diluted with artificial plasma to produce a series of calibration standards at the following concentrations: 50, 100, 150, 250, 500, 1,000, 1500, 2500, 5000, 10 000, and 15 000 pg/mL. Quality control (QC) samples were prepared in artificial plasma at 200, 800, 3000, and 9000 pg/mL and analyzed prior to real human plasma samples. For method validation, four concentration levels were prepared in artificial plasma at 50, 125, 6000, and 13 000 pg/mL. Two concentration levels (193 and 7752 pg/mL) were evaluated for stability testing.
(§2) Each concentration level was tested in triplicate.

[2] = Short-term stability in refrigerator (4°C) in artificial plasma with and without 1% PIC; details: triplicate, 2D-LC-MS/MS
Procedure: as §1, §2

[3] = Autosampler (re-injection) stability at 4°C for 24 h; type: in vitro ADME; details: autosampler (AS) 4°C, triplicate, 2D-LC-MS/MS
Procedure: (§3) The stability tests of all insulins were performed at two concentration levels (193 and 7752 pg/mL). One set of tests was performed with artificial plasma and the other set with artificial plasma containing 1% PIC. Each concentration level was tested in triplicate. These QC samples were quantified using an artificial plasma calibration curve without PIC, and the obtained concentrations were compared with the nominal concentrations of the low quality control (LQC) and high quality control (HQC), which were set to 100%. To evaluate the stability of insulins in artificial plasma containing 1% PIC, we considered the concentration measured at time zero as the baseline (100%). All subsequent changes in concentration were calculated relative to this initial measurement.
(§4) Short‐term stability, long‐term stability, and freeze‐thaw stability were evaluated in this study. LQC and HQC samples were stored at room temperature and in a refrigerator for 3, 6, and 24 h to assess short‐term (bench‐top) stability and at 4°C in the autosampler for 24 h to assess re‐injection stability.

[4] = Freeze-thaw stability in artificial plasma after storage at −80°C; type: in vitro ADME; details: stored at −80°C, triplicate, 2D-LC-MS/MS; for 24 h, change (%): cycle at 24 h; for 48 h, change (%): cycle at 48 h; for 72 h, change (%): cycle at 72 h
Procedure: as §3, §4

[5] = Long-term stability in artificial plasma at −20°C; type: in vitro ADME; details: triplicate, 2D-LC-MS/MS
Procedure: as §3, §4

[6] = Long-term stability in artificial plasma at −80°C; type: in vitro ADME; details: triplicate, 2D-LC-MS/MS
Procedure: as §3, §4

[7] = Insulin concentrations in patient plasma samples (2D-LC-MS/MS); type: in vivo, human
Procedure: Patient samples were collected in K2EDTA tubes, and centrifuged, and 250 µL aliquots were either analyzed immediately or stored at −80°C for analysis the following day. A previously published method [12] was used for sample preparation, including protein precipitation, conversion of analytes to anions, and micro SPE (µSPE) using Oasis MAX multimodal sorbent (Waters) in a 96‐well design. […] QuanRecovery with MaxPeak 700 µL plates (Waters) were used for elution after SPE and subsequent injection for 2D‐LC‐MS/MS analysis.
To assess the clinical applicability of the proposed method, 30 patient samples (16 males and 15 females) were analyzed. Plasma samples (collected in K2EDTA tubes) were supplied to the Department of Forensic Medicine.

[8] = Adsorption test in three types of glass vials; type: physicochemical; details: 15 ng/mL in 6.7% acetic acid in water:methanol (60:40, v/v), UHPLC-MS/MS, Figure S10
Procedure: We prepared stock solutions of all insulins, which were then transferred to three different types of glass vials and analyzed by LC‐MS/MS. For the adsorption test, a mixture of all insulins at a concentration of 15 ng/mL was prepared in a solvent containing 6.7% acetic acid in a water:methanol mixture (60:40, v/v). The mixture was then transferred to three types of vials and analyzed by UHPLC‐MS/MS. This experiment was performed prior to the optimization of the chromatographic method.

[9] = artificial plasma (BZ273) with 1% PIC, 193 pg/mL, % of concentration at time zero (=100%)
[10] = artificial plasma (BZ273) with 1% PIC, 7752 pg/mL, % of concentration at time zero (=100%)
[11] = artificial plasma (BZ273) without PIC, 193 pg/mL, % of nominal concentration (=100%)
[12] = artificial plasma (BZ273) without PIC, 7752 pg/mL, % of nominal concentration (=100%)
[13] = artificial plasma (BZ273) with 1% PIC, 7752 pg/mL, % of concentration at time zero
[14] = artificial plasma (BZ273) without PIC, 7752 pg/mL, % of nominal concentration
[15] = artificial plasma (BZ273) with 1% PIC, 193 pg/mL, % of concentration at time zero

Human insulin
0 h, change (%) [1, 9]: 100.0%
24 h, change (%) [1, 9]: 72.1%
0 h, change (%) [1, 10]: 100.0%
6 h, change (%) [1, 10]: 86.4%
24 h, change (%) [1, 10]: 67.4%
0 h, change (%) [1, 11]: 100.1%
0 h, change (%) [1, 12]: 99.1%
6 h, change (%) [1, 12]: 95.1%
3 h 4°C, change (%) [2, 9]: 100.4%
24 h 4°C, change (%) ([2]; artificial plasma (BZ273) with 1% PIC, 193 pg/mL, 24 h, % of concentration at time zero (=100%)): 87.9%
6 h 4°C, change (%) [2, 10]: 98.6%
6 h 4°C, change (%) [2, 11]: 105.6%
3 h 4°C, change (%) [2, 12]: 90.2%
24 h AS, change (%) ([3]; extracted samples from artificial plasma with 1% PIC, 193 pg/mL, % of concentration at time zero (=100%)): 105.9%
24 h AS, change (%) ([3]; extracted samples from artificial plasma without PIC, 7752 pg/mL, % of nominal concentration (=100%)): 100.5%
24 h, change (%) [4, 13]: 111.6%
24 h, change (%) [4, 14]: 100.2%
48 h, change (%) [4, 15]: 116.6%
48 h, change (%) [4, 14]: 94.6%
72 h, change (%) [4, 13]: 92.9%
72 h, change (%) [4, 14]: 87.1%
1 week, change (%) [5, 15]: 70.1%
1 week, change (%) [5, 13]: 54.9%
2 weeks, change (%) [5, 13]: 61.8%
2 weeks, change (%) ([5]; artificial plasma (BZ273) without PIC, 193 pg/mL, % of nominal concentration): 106.3%
3 weeks, change (%) ([5]; 3 weeks, artificial plasma (BZ273) with 1% PIC, 7752 pg/mL, % of concentration at time zero): 25.9%
1 week, change (%) ([6]; 1 week, artificial plasma (BZ273) without PIC, 7752 pg/mL, % of nominal concentration): 100.1%
2 weeks, change (%) [6, 15]: 105.8%
2 weeks, change (%) [6, 13]: 111.9%
2 weeks, change (%) [6, 14]: 106.0%
Concentration range (pg/mL) in patient samples ([7]; human plasma (K2EDTA), 30 patient samples from the Department of Forensic Medicine (unexplained deaths), range over quantified samples): 219.1 to 6065.2 pg/mL
Concentration in a real patient sample ([7]; human plasma, single patient sample of Figure 2): LLOQ
Difference in concentration between vial types (adsorption to container surfaces) [8]: up to 50%
